{"source": "patent CN103588878A", "about": "(JIANGSU T MAB BIOPHARMA, dated 2014)", "binders": {"B1": {"name": "人源化抗人白细胞介素1β(hIL-1β)单克隆抗体 (antibody, human IgG1, kappa, V domains shown)", "VH": "EVQLVESGGGLVQPGGSLRLSCAVSGFSLDVYTMTWVRQAPGKGLEWIGYIWSGGSASYASWAKGRFTISKDSSKNTVYLQINSLRAEDTAVYFCARVKMISNIETFDPWGPGTLVTVSS", "VL": "DIQMTQSPSSVSASVGDRVTIKCQASERIYSGLAWYQQKPGKRPKLLIYRASTLASGVPSRFSGSGSGTDFTLTISSLQPEDFATYYCQQGVSSSDIDNVFGGGTKVEIKR", "notes": "Full light and heavy chains; Expressed in CHO DG44 cells and purified; also called 人源化抗hIL-1β单克隆抗体; humanized form of rabbit clone Q26"}}, "key": {"[1]": {"molecular_target": "T1, 生物素化重组人白细胞介素1β (rhIL-1β) (human, UniProt P01584 117-269, biotinylated (site not stated))", "T1 construct": "Antigen was biotinylated and desalted before the Fortebio Octet measurement; also called 抗原rhIL-1β", "assay": "BLI (Fortebio Octet QK), summary range of the two runs"}, "[2]": {"molecular_target": "T1, 生物素化重组人白细胞介素1β (rhIL-1β)", "assay": "BLI (Fortebio Octet QK), biotinylated rhIL-1β, antibody 40-1.25 nM, run 1"}, "[3]": {"molecular_target": "T1, 生物素化重组人白细胞介素1β (rhIL-1β)", "assay": "BLI (Fortebio Octet QK), biotinylated rhIL-1β, antibody 40-1.25 nM, run 2"}}, "note": "Several values for one entry are separate records, joined by “and”; a condition that tells them apart may be missing. Equal values may be shown once.", "data": [{"binder": "B1", "values": [{"measurement": "Kd", "setting": "[1]", "value": "0.01 nM and 0.025 nM"}, {"measurement": "Kd", "setting": "[2]", "value": 0.0211, "unit": "nM"}, {"measurement": "koff", "setting": "[2]", "value": "3.02e-06", "unit": "s⁻¹"}, {"measurement": "kon", "setting": "[2]", "value": 143000, "unit": "M⁻¹ s⁻¹"}, {"measurement": "Kd", "setting": "[3]", "value": 0.0128, "unit": "nM"}, {"measurement": "koff", "setting": "[3]", "value": "2.16e-06", "unit": "s⁻¹"}, {"measurement": "kon", "setting": "[3]", "value": 166000, "unit": "M⁻¹ s⁻¹"}]}]}
